Data taken from patent US20220380446A1 (ABL BIO, published 2022).
Read-outs that look alike come from different tables or passages of the source.

Legend:
[1] = target: human α-synuclein oligomers (Dopamine HCL Stabilized Human Recombinant Alpha Synuclein Oligomers, StressMarq … (human, UniProt P37840 1-140)); assay: sandwich ELISA, antibody coated, oligomeric α-syn added, 7B7-biotin detection
Method: Human α-syn oligomers from StressMarq (Dopamine HCL Stabilized Human Recombinant Alpha Synuclein Oligomers, SPR-466) was used as the oligomeric α-syn in the assay.
In this sandwich ELISA, test antibodies were diluted with PBS by five-fold serial dilution from 80 nM to 0.005 nM. The serially diluted antibodies were added to a 96-well plate at 100 μL/well for coating. The plate was sealed and incubated at 4° C. for 16 hours. After washing with PBS-T five times, the plate was blocked with 5% BSA in PBS 200 μL/well at 37° C. for 2 hours. After washing with PBS-T five times, oligomeric α-syn (2 μg/mL, 100 μL/well in 2% BSA in PBS) was added and incubated at 37° C. for 2 hours. After washing with PBS-T five times, 7B7-biotin antibody (1 μg/mL, 100 μL/well, in 2% BSA in PBS) were added and incubated at 37° C. for 2 hours. After washing with PBS-T five times, the plate was incubated with Streptavidin-HRP in 2% BSA in PBS (1:5000, 1 mg/mL stock, 20 ng/well, 100 μL/well) at 37° C. for 1 hour. After washing with PBS-T five times, TMB (100 μL/well) was added and incubated at RT for 5 minutes. The reaction was stopped by the addition of 0.5 N H₂SO₄ (50 μL/well).

[2] = target: T1, human α-synuclein pre-formed fibrils (Human Alpha Synuclein Pre-formed Fibrils Type II, StressMarq SPR-317) (human, UniProt P37840 1-140); assay: SPR Biacore 'as described above', antibody captured, α-syn PFF analyte, 1:1 model
[3] = target: T1, human α-synuclein pre-formed fibrils …; assay: SPR (Biacore), antibody captured on anti-hFab CM3 chip, α-syn PFF as analyte (sample PFF-1), single-cycle kinetics, 1:1 Binding fit, 25 °C; Run1
Method: (§1) The equipment used was Biacore®. Anti-hFab (Sigma, I5260-1ML) diluted in acetate buffer (pH 5.0) was immobilized on the surface of an CM3 chip (GE Healthcare) by amine coupling. […] All procedures in association and dissociation phases were done in single-cycle kinetics. A 1:1 binding model was used for fitting, and the Biacore® T200 Evaluation software was used for the evaluation.

[4] = target: T1, human α-synuclein pre-formed fibrils …; assay: SPR Biacore T200, antibody captured on Protein A chip, α-syn PFF analyte, 1:1 model
Method: The equipment used was Biacore® (GE Healthcare, Model T200). Protein A (GE Healthcare, Cat: 29-1275-56) was used as a chip, 10 mM glycine-HCl pH 1.5 (GE Healthcare, Cat: BR-1003-54) was used as a regeneration buffer, and HBS-EP was used as a running buffer and an analyte dilution and sample dilution buffer. […] A capture phase was carried out at a contact time of 60 seconds and a flow rate of 30 μL/min was used for a stabilization period of 60 seconds, with the target resonance units (RU) of fibril set to 10 (theoretical). In an association phase, the association time was set to 60 seconds and a flow rate was set to 60 μL/min. In a dissociation phase, the dissociation time was set to 180 seconds, and a flow rate was set to 60 μL/min. In a regeneration phase, the flow rate was set to 30 μL/min, and the regeneration time was set to 60 seconds. A 1:1 binding model was used for fitting, and the Biacore® T200 Evaluation software (GE Healthcare) was used for the evaluation.

[5] = target: T1, human α-synuclein pre-formed fibrils …; assay: SPR (Biacore), file name 'Main-ProA', α-syn PFF as analyte (sample PFF-4), single-cycle kinetics, 1:1 Binding fit, 25 °C; Run02
[6] = target: T1, human α-synuclein pre-formed fibrils …; assay: SPR (Biacore), antibody captured on anti-hFab CM3 chip, α-syn PFF as analyte (sample PFF-2), single-cycle kinetics, 1:1 Binding fit, 25 °C; Run2
Method: as §1

[7] = target: T1, human α-synuclein pre-formed fibrils …; assay: sandwich ELISA, antibody coated, α-syn PFF added, 7B7-biotin detection
Method: (§2) Specifically, the antibodies were diluted with PBS by six-fold serial dilution from 400 nM to 0.009 nM. The diluted antibodies were added to a 96-well plate at 100 μL/well for coating. The plate was sealed and incubated at 4° C. for 16 hours. After washing with phosphate-buffered saline with Tween® (PBS-T; 0.05% Tween® 20) five times, the plate was blocked with 5% BSA in PBS 200 μL/well at 37° C. for 2 hours. After washing with PBS-T five times, α-syn PFF (2 μg/mL, 100 μL/well in 2% BSA in PBS) was added to the plate and incubated at 37° C. for 2 hours. After washing with PBS-T five times, 7B7-biotin antibody (anti-α-syn antibody; 1 μg/mL/100 μL/well, in 2% BSA in PBS) was added and incubated at 37° C. for 2 hours. After washing with PBS-T five times, the plate was incubated with horseradish peroxidase (HRP)-bound streptavidin in PBS with 2% BSA (1:5000, 1 mg/mL stock, 20 ng/well, 100 μL/well) at 37° C. for 1 hour. After washing with PBS-T five times, 3,3′,5,5′-tetramethylbenzidine (TMB) (100 μL/well) was added and incubated at room temperature for 5 minutes. The reaction was stopped by the addition of 0.5 N H₂SO₄ (50 μL/well). Optical absorbance at 450 nm was measured by using a plate reader, with absorbance at 650 nm subtracted from the reading.

[8] = target: T1, human α-synuclein pre-formed fibrils …; assay: as above; remark: listed apart in the source
Method: as §2

EC50 [1]: 3.62 nM
Saturation point [1]: 3.18
Kd [2]: 0.025 nM
koff [2]: 0.000345 s⁻¹
kon [2]: 1.4e+07 M⁻¹ s⁻¹
koff [3]: 0.00067 s⁻¹
kon [3]: 1.91e+07 M⁻¹ s⁻¹
Kd [4]: 0.0293 nM
koff [4]: 0.000423 s⁻¹
kon [4]: 1.45e+07 M⁻¹ s⁻¹
koff [5]: 0.000219 s⁻¹
kon [5]: 1.44e+07 M⁻¹ s⁻¹
koff [6]: 0.000743 s⁻¹
kon [6]: 1.83e+07 M⁻¹ s⁻¹
EC50 [7]: 0.334 nM
EC50 [8]: 0.236 nM
B1: hu1E4(V1_VL1) x Grabody B (bispecific antibody, human IgG1, kappa)
heavy 1: not shown
heavy 2: not shown
light: DIVMTQTPLSLSVTPGQPASISCRSSQSLVHSNGNTYLHWYLQKPGQSPQLLIYKVSNRFSGVPDRFSGSGSGTDFTLKISRVEAEDVGVYYCSQSTHVPRTFGQGTKLEIKRTVAAPSVFIFPPSDEQLKSGTASVVCLLNNFYPREAKVQWKVDNALQSGNSQESVTEQDSKDSTYSLSSTLTLSKADYEKHKVYACEVTHQGLSSPVTKSFNRGEC
notes: Anti-α-syn/IGF1R bispecific; hole heavy chain (M428L) carries the anti-IGF1R scFv Grabody B at its C-terminus through a (G4S)3 linker; knob heavy chain (M428L) without scFv; also called hu1E4(V1 VL1) × Grabody B; 1E4(Ver.1_VL1) × Grabody B
